Results on 4 molecules are retold here after patent US20260209362A1 (VIB VZW, published 2026).

Experiment [1] addresses T1, biotinylated recombinant human IL-12Rβ2 (produced in-house) (human, UniProt Q99665 24-622, random biotinylated).
T1 construct: also called hIL-12RB2; hIL12RB2
T1 sequence: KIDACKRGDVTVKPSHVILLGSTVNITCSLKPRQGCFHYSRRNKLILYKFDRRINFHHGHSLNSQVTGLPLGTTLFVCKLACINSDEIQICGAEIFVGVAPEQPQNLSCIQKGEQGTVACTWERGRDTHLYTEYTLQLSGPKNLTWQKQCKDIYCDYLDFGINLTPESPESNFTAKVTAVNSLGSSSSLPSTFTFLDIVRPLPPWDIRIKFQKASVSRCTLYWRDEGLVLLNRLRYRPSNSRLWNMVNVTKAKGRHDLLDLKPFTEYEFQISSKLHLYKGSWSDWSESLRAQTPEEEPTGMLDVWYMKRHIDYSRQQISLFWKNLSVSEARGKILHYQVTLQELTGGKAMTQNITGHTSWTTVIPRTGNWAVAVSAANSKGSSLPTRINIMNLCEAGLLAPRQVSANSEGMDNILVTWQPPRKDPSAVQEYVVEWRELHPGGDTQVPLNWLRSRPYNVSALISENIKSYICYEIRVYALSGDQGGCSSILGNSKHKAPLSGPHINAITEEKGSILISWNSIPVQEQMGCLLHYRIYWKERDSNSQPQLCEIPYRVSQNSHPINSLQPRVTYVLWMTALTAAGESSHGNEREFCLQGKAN
As to the kind of experiment: BLI (Octet), P.E. VHH on immobilised biotinylated hIL-12RB2. (In general: BLI is a label-free optical method that tracks binding on a fibre tip over time.)

Experiment [2] deals with T2, biotinylated recombinant mouse IL-12Rβ2 (produced in-house) (mouse, UniProt P97378 24-637, random biotinylated).
T2 construct: also called mIL-12RB2; mIL12RB2
T2 sequence: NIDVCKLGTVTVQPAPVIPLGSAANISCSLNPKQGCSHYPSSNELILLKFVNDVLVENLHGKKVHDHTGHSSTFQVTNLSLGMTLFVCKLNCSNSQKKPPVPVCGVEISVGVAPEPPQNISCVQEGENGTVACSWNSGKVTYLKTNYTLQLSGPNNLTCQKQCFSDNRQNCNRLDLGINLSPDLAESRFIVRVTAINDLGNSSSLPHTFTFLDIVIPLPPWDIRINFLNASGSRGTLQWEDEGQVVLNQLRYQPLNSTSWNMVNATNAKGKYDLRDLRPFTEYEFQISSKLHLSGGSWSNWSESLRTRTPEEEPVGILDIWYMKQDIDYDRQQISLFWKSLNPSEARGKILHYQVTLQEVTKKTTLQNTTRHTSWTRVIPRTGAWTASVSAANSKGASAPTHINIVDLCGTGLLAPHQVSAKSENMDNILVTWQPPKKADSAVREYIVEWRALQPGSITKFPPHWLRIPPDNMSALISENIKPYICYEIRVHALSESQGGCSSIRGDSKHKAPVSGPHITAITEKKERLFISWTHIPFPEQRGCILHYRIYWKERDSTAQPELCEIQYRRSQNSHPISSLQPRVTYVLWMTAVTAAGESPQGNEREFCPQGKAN
Nature of the experiment: BLI (Octet), P.E. VHH on immobilised biotinylated mIL-12RB2.

For experiment [3], the target named is T3, mouse IL-12Rβ2 expressed on cells (mouse, UniProt P97378 24-874).
T3 construct: HEK293T cells, stably transduced (cDNA NM_008354); also called mIL-12RB2
T3 sequence: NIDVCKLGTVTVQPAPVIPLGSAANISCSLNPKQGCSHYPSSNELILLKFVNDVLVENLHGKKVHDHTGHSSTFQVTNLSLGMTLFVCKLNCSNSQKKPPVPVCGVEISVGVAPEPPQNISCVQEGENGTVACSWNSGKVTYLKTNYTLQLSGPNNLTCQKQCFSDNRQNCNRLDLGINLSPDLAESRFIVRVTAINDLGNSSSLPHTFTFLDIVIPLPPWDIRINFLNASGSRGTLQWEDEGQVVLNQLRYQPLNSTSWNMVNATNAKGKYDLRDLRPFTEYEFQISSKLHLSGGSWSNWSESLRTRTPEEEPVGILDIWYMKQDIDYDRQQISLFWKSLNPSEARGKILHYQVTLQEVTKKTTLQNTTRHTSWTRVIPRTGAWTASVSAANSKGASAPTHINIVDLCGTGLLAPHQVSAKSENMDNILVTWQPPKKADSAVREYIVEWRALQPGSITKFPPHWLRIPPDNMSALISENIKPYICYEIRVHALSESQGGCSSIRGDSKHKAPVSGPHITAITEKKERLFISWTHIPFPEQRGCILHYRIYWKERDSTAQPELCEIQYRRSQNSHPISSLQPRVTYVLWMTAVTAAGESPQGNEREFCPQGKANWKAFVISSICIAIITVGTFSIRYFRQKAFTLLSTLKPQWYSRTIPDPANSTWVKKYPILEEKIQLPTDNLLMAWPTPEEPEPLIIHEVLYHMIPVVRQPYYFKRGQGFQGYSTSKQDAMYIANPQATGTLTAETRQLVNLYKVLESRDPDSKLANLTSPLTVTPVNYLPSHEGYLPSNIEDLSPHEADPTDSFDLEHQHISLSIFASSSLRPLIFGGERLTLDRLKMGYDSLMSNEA
As to the kind of experiment: flow cytometry, P.E. VHH on HEK293T cells stably expressing mIL-12RB2. A general note: Flow cytometry measures light scatter and fluorescence of single cells or particles in a stream.

Experiment [4] has as its target T1, biotinylated recombinant human IL-12Rβ2 …. Nature of the experiment: BLI (Octet), P.E. VHH on immobilised biotinylated hIL-12RB2, 1:1 model.
Experiment [5] shares this target. Nature of the experiment: ELISA, P.E. VHH on biotinylated hIL-12RB2, signal ratio to control well. Background: In an ELISA, binding on a coated surface is turned into a signal by an enzyme label.
In experiment [6] the target is T2, biotinylated recombinant mouse IL-12Rβ2 …. Nature of the experiment: ELISA, P.E. VHH on biotinylated mIL-12RB2, signal ratio to control well.
Experiment [7] deals with T3, mouse IL-12Rβ2 expressed on cells. As to the kind of experiment: flow cytometry, P.E. VHH on HEK293T cells transiently expressing mIL-12RB2.

One may read the koff as the rate constant with which the complex falls apart.

B1: anti-IL-12Rβ2 VHH clone 3CRHM73 (VHH, not shown: small tags and cut ends)
VHH: QVQLQESGGGLVQAGGSLSLSCAASGSAFRLNFMGWYRQAPGKQRELVAAINSGGTEIYHDSVKGRFTISRDNADSTVWLQMNSLKPDDTAVYYCAADRGISWSKLAGGMDYWGKGTQVTVSS
notes: tested as periplasmic extract; also called 21060
Turning to B1, the Response in experiment [1] amounted to 1.45; in experiment [2], 0.944. The “% cells bound” value in experiment [3] came to 27.3%; in experiment [7], 10.4%. Besides, the dMFI is 150 in experiment [3] and 257 in experiment [7]. The koff in experiment [4] worked out at 0.00605 s⁻¹. In experiment [5], the “ELISA hIL12RB2/control” value worked out at 6.9. In experiment [6], the “ELISA mIL12RB2/control” value is 26.3.

B2: anti-IL-12Rβ2 VHH clone 3CRHM99 (VHH, not shown: small tags and cut ends)
VHH: QVQLQESGGGLVQPGGSLRLSCAASGISSSRLHVGWFRQSPGKEREFVAAISLSGGTQAYTDSVKGRFTISGDNVKNTAYLQMNSLRPEDTAVYYCAARERFIWTWSDLTYDYWGQGTQVTVSS
notes: tested as periplasmic extract; also called 21062
Take B2: the Response was 1.45 in experiment [1] and 0.812 in experiment [2]. The “% cells bound” value was 57.3% in experiment [3] and 10.7% in experiment [7]. Further, the dMFI in experiment [3] was 309; in experiment [7], 251. In addition, the koff in experiment [4] is 0.00634 s⁻¹. Besides, in experiment [5], the “ELISA hIL12RB2/control” value turned out to be 4.24. The “ELISA mIL12RB2/control” value in experiment [6] was 5.24.

B3: anti-IL-12Rβ2 VHH clone 3CAHM11 (VHH, not shown: small tags and cut ends)
VHH: QVQLQESGGGLVQAGGSLRLSCAASGRTFNNYAMAWFRQAPGKEREFIAAITRSDTTLYIDSVKGRFTISRDNAKNTVALQMNSLKPEDTAVYYCAAGMPYSYSDYPRDSKYDYWGRGTQVTVSS
notes: tested as periplasmic extract
Regarding B3, the Response in experiment [1] is 1.4; in experiment [2] it was 1.03. Moreover, the results for the “% cells bound” value in experiment [3] and in experiment [7] were 56.9% and 7.53%, respectively. Also, the dMFI was determined as 316 in experiment [3] and 194 in experiment [7]. Further, in experiment [4], the koff amounted to 0.00519 s⁻¹. For the same molecule, in experiment [5], the “ELISA hIL12RB2/control” value was 3.04. In addition, the “ELISA mIL12RB2/control” value in experiment [6] was determined as 38.8.

B4: anti-IL-12Rβ2 VHH clone 3CRHM14 (VHH, not shown: small tags and cut ends)
VHH: QVQLQESGGGLVQAGGSLRLSCAASGRTFSNYAMAWFRQAPGTEREFVAGLSGSGGDTEFYDDSVKGRFAISRDSAKNTVWLQMNSLKPEDTAVYYCAAATHVVVHYGLVRRRGTYDYWGQGTQVTVSS
notes: tested as periplasmic extract
With B4, the Response in experiment [1] was 1.19; in experiment [2], 0.957. Further, the “% cells bound” value in experiment [3] is 26.2%; in experiment [7], 18.6%. The dMFI in experiment [3] amounted to 136; in experiment [7] it was 312. The koff in experiment [4] was found to be 0.00532 s⁻¹. Also, the “ELISA hIL12RB2/control” value in experiment [5] turned out to be 3.11. Besides, the “ELISA mIL12RB2/control” value in experiment [6] came to 25.1.
